{"source": "patent US20040014939", "system": "T1, synthetic substrate Mcc-Pro-Leu-Gly-Pro-D-Lys(DNP)-OH", "T1 sequence": "PLGPK"}
{"substance": "luciferase as a fusion protein with 6×His tag", "values": [{"measurement": "enzyme activity (fluorescence intensity, excitation 345±10 nm, emission 425±10 nm, 37° C. for 1 h)", "value": "the enzyme activity was not detected in the water-soluble fraction in the case of a control in which luciferase gene was introduced into the similar expression vector"}]}
